Numbering of substitutions follows the chain as printed. Names and notes keep the numbering of the source.
What was measured:
[1] = molecular target: the molecule itself; experiment: SEC
[2] = molecular target: the molecule itself; experiment: cell-based or functional assay
[3] = molecular target: the molecule itself; experiment: SEC; remark: listed apart in the source

B1: S167D-catalase (phospho-mimic mutant of human catalase) (enzyme, UniProt P04040 1-527, looked up)
chain: MADSRDPASDQMQHWKEQRAAQKADVLTTGAGNPVGDKLNVITVGPRGPLLVQDVVFTDEMAHFDRERIPERVVHAKGAGAFGYFEVTHDITKYSKAKVFEHIGKKTPIAVRFSTVAGESGSADTVRDPRGFAVKFYTEDGNWDLVGNNTPIFFIRDPILFPSFIHDQKRNPQTHLKDPDMVWDFWSLRPESLHQVSFLFSDRGIPDGHRHMNGYGSHTFKLVNANGEAVYCKFHYKTDQGIKNLSVEDAARLSQEDPDYGIRDLFNAIATGKYPSWTFYIQVMTFNQAETFPFNPFDLTKVWPHKDYPLIPVGKLVLNRNPVNYFAEVEQIAFDPSNMPPGIEASPDKMLQGRLFAYPDTHRHRLGPNYLHIPVNCPYRARVANYQRDGPMCMQDNQGGAPNYYPNSFGAPEQQPSALEHSIQYSGEVRRFNTANDDNVTQVRAFYVNVLNEEQRKRLCENIAGHLKDAQIFIQKKAVKNFTEVHPDYGSHIQALLDKYNAEKPKNAIHTFVQSGSHLAAREKANL
Dimer (%) [1]: 9.2%
Tetramer (%) [1]: 44.4%
rate of H2O2 decomposition by the purified protein, against wildtype catalase [2]: 2 fold
stoichiometry N [3]: 4

B2: recombinant human wildtype catalase incubated with PKCδ (phosphorylated at S167) (enzyme, UniProt P04040 1-527, looked up)
chain: B1 chain with D167S
modifications: phosphoserine at 167
Dimer (%) [1]: 6.23%
Tetramer (%) [1]: 51.8%
stoichiometry N [3]: 4

B3: recombinant human wildtype catalase (enzyme, UniProt P04040 1-527, looked up)
chain: B1 chain with D167S
Dimer (%) [1]: 53%
Tetramer (%) [1]: 4.78%
stoichiometry N [3]: 2

Reference: PMC3945115 (Free radical biology & medicine, 2013)
